Reference: US20180021429A1, “ANTICANCER AGENTS OR ANTIMETASTATIC AGENTS USING FSTL1 AND COMBINATION DRUG THEREOF” (PHARMA FOODS INTERNATIONAL CO., LTD., priority 2015, published 2018)

How the values were obtained:
FSTL1 [1] = biological target: T1, FSTL1 (Homo sapiens, UniProt Q12841); assay: Biacore T-200 affinity of mouse chimeric antibodies for human FSTL1 (Example 33); type: binding
T1 sequence (Q12841 21-308): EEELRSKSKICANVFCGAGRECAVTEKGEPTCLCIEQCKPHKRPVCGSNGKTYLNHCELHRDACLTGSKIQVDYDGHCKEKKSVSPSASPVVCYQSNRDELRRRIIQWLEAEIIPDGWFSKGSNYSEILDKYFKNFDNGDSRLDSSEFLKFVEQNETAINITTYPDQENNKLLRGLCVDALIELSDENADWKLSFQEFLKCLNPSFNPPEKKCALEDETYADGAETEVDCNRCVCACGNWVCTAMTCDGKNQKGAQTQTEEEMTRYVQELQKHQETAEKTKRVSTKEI
Experimental: (§1) The mouse chimeric antibodies were immobilized onto Sensor Chip CM5 (GE Healthcare Japan Corp., BR-1005-30) using Mouse Antibody Capture Kit (GE Healthcare Japan Corp., BR-1008-38), and their affinity for human FSTL1 was calculated using Biacore T-200 (GE Healthcare Japan Corp.).
First, the exhaustive activity comparison of the obtained antibodies was conducted with the human FSTL1 concentration fixed to 10 μg/ml (Table 33-1, FIG. 122).
Next, the KD values of clone #6-55, #7-34, and #13 presumed to have high affinity in FIG. 122 were calculated with the antigen concentration adjusted to 0 to 20 μg/ml (Table 35-2).

[2] = test system: GFP+F10-snail+ tumor cells; assay: In vivo drug efficacy of each anti-FSTL1 antibody clone, GFP+F10-snail+ tumor model (Example 32); design: species or system mouse
Experimental: (§2) • Day 0: transplantation of GFP+F10-snail+ tumor cells (3×10^5 cells subcutaneously & 2×10^4 cells intravenously) • Day 4: intraperitoneal administration of the antibody (first dose, 10 mg/kg) • Day 7: intraperitoneal administration of the antibody (second dose, 10 mg/kg)
(§3) Subcutaneous tumor was measured 4, 7, 10, 14, 17, 20, and 23 days after tumor cell transplantation.

FSTL1 [3] = biological target: T1, FSTL1; assay: MSC induction inhibition test using mouse bone marrow cells stimulated with FSTL1 (Example 27); type: cell-based; design: purchased R&D Systems, Inc. 1694-FN-050; conditions: FSTL1 20 ng/mL, antibody 10 μg/mL, 8 days
Experimental: (§4) In this Example, the inhibitory activity of the anti-FSTL1 antibody was confirmed in an experimental system of mesenchymal stem cell induction while a FSTL1 inhibitory effect on MSC expansion induced not only by FSTL1 but by Snail+ tumor cells was also evaluated. For specific operation, each antibody (10 μg/mL) was added to systems in which C57/BL/6 mouse-derived bone marrow cells were stimulated with FSTL1 (20 ng/mL) or a culture supernatant of tumor cells. After culture for 8 days under stimulation, cell fraction CD45(−) cells (MSCs) containing MSCs at a high rate and CD45(−)CD146(+)ALCAM(+) cells (sMSCs) increasing in number in association with cancer metastasis were analyzed by flow cytometry in the same way as in Example 14, and the number of cells per culture system was counted. In this Example, mouse immunoglobulin manufactured by BioLegend, Inc. (4401408, Cone MG1-45) was used as a control antibody.
as §4, with “(#401408,” for “(4401408,”

[4] = test system: C57/BL/6 mouse-derived bone marrow cells; assay: MSC induction inhibition test using mouse bone marrow cells, FSTL1 stimulation (Example 27); type: cell-based; conditions: FSTL1 20 ng/mL; antibody 10 μg/mL; 8 days; FIG. 21A
Experimental: as §4, with “(#401408,” for “(4401408,”

[5] = test system: GFP+F10-snail+ tumor cells; assay: In vivo drug efficacy of each anti-FSTL1 antibody clone, GFP+F10-snail+ tumor model (Example 32); design: species or system mouse; remark: listed apart in the source
Experimental: as §2, §3
Experiment Group (n=5) Control IgG (anti-DNP mAb) • #6-55 • #7 • #10 • #13 • #33
• Day 0: transplantation of GFP+F10-snail+ tumor cells (3×10^5, cells subcutaneously & 2×10^4 cells intravenously) • Day 4: intraperitoneal administration of the antibody (first dose, 10 mg/kg) • Day 7: intraperitoneal administration of the antibody (second dose, 10 mg/kg)

[6] = test system: GFP+F10-snail+ tumor cells; assay: In vivo drug efficacy of each anti-FSTL1 antibody clone, Snail+ tumor bone metastasis model (Example 32); design: species or system mouse
Experimental: as §2, §3

FSTL1 [7] = biological target: T1, FSTL1; assay: Affinity of mouse chimeric antibodies for human FSTL1, Biacore T-200 (Example 33); type: binding
Experimental: as §1
First, the exhaustive activity comparison of the obtained antibodies was conducted with the human FSTL1 concentration fixed to 10 μg/ml (Table 33-1, FIG. 58).
Next, the KD values of clone #6-55, #7-34, and #13 presumed to have high affinity in FIG. 58 were calculated with the antigen concentration adjusted to 0 to 20 μg/ml (Table 35-2).
First, the exhaustive activity comparison of the obtained antibodies was conducted with the human FSTL1 concentration fixed to 10 μg/ml (Table 33-1, FIG. 90).
Next, the KD values of clone #6-55, #7-34, and #13 presumed to have high affinity in FIG. 90 were calculated with the antigen concentration adjusted to 0 to 20 μg/ml (Table 35-2).

[8] = test system: C57/BL/6 mouse-derived spleen cells; assay: Treg induction inhibition test using mouse spleen cells stimulated with FSTL1 (Example 28); type: cell-based; conditions: FSTL1 5 ng/ml, antibody 5 μg/mL, 3 days; FIG. 116
Experimental: (§5) In this Example, the experiment was conducted according to Example 17. Specifically, 5 μg/mL of each antibody was added to a system in which C57/BL/6 mouse-derived spleen cells (2×10^6 cells) were stimulated with 5 ng/ml of FSTL1. After culture for 3 days, the percentage (%) of a Foxp3+CTLA4+ cell fraction in CD4+ T cells was analyzed as Treg cells by flow cytometry. Activity was compared with #6-55 used in the preceding studies.

FSTL1 [9] = biological target: T1, FSTL1; assay: as above; type: cell-based; design: purchased R&D Systems, Inc. 1694-FN-050; conditions: FSTL1 5 ng/ml, antibody 5 μg/mL, 3 days
Experimental: as §5
In this Example, the experiment was conducted according to Example 17. Specifically, 5 μg/mL of each antibody was added to a system in which C57/BL/6 mouse-derived spleen cells (2×10^6 cells) were stimulated with 5 ng/ml of FSTL1. After culture for 3 days, the percentage (%) of a Foxp3+CTLA4+ cell fraction in CD4+ T cells was analyzed as Treg cells by flow cytometry. Activity was compared with […] used in the preceding studies.

[10] = test system: C57/BL/6 mouse-derived bone marrow cells; assay: MSC induction inhibition test using mouse bone marrow cells stimulated with FSTL1 (Example 27); type: cell-based; conditions: FSTL1 20 ng/mL, antibody 10 μg/mL, 8 days; flow cytometry; FIG. 115A
Experimental: as §4, with “(#401408,” for “(4401408,”

[11] = test system: C57/BL/6 mouse-derived spleen cells; assay: Treg induction inhibition test using mouse spleen cells (Example 28); type: cell-based; conditions: FSTL1 5 ng/ml; antibody 5 μg/mL; 3 days; FIG. 22
Experimental: as §5

FSTL1 [12] = biological target: T1, FSTL1; assay: Affinity of mouse chimeric antibodies, Biacore T-200 (Example 33); type: binding
Experimental: as §1
First, the exhaustive activity comparison of the obtained antibodies was conducted with the human FSTL1 concentration fixed to 10 μg/ml (Table 33-1, FIG. 28).
Next, the KD values of clone #6-55, #7-34, and #13 presumed to have high affinity in FIG. 28 were calculated with the antigen concentration adjusted to 0 to 20 μg/ml (Table 35-2).

B1: #10: chicken-mouse chimeric anti-FSTL1 antibody clone; variable regions SEQ ID NO: 811 (light), 813 (heavy) (antibody, V domains shown)
VH: AVTLDESGGGLQTPGGALSLVCKASGFFFFRIYDMGWVRQAPGKGLEWVAGIDDYGRYTGYGSAVKGRATISRDNGQSTVRLQLNNLRAEDTGTYYCARGAGTGCNSAGCGAYAGSIDAWGHGTEVIVSS
VL: ASTQPSSVSANPGETVKLTCSGGGSRYGWYQQKSPGSAPVTVIYYNDKRPSDIPSRFSGSKSGSTATLTITGVQAEDEAVYFCGGYDGSRDAGIFGAGTTLTVL
modifications: mouse constant regions
affinity in an assay system using surface plasmon resonance (FSTL1 [1]): strong affinity | mouse survival period (life-prolonging effect) ([2]; intraperitoneal 10 mg/kg on days 4 and 7, FIG. 121): therapeutic effects equal to or higher than those of #6-55 | comprehensive evaluation of antitumor activity ([2]; stated as a possibility): high antitumor activity exceeding that of #6-55 | MSC induction inhibitory activity, reproducibility confirmed (FSTL1 [3]): high MSC induction inhibitory activity equivalent to or higher than that of #6-55 | inhibitory effect in the MSC induction inhibition test (CD45(−) MSCs and sMSCs, flow cytometry) (FSTL1 [3]): strong inhibitory effect equivalent to or higher than that of #6-55 | MSC induction inhibitory activity (CD45(−) MSCs, CD45(−)CD146(+)ALCAM(+) sMSCs) [4]: high MSC induction inhibitory activity equivalent to or higher than that of #6-55 | mouse survival period (life-prolonging effect) ([5]; intraperitoneal 10 mg/kg on days 4 and 7, vs control antibody): therapeutic effects equal to or higher than those of #6-55 | comprehensive evaluation of antitumor activity ([5]; mouse, in vivo): high antitumor activity exceeding that of #6-55 | mouse survival period (life-prolonging effect) ([6]; intraperitoneal 10 mg/kg on days 4 and 7, FIG. 27): therapeutic effects equal to or higher than those of #6-55 | comprehensive evaluation of antitumor activity ([6]; mouse, in vivo): high antitumor activity exceeding that of #6-55 | affinity in an assay system using surface plasmon resonance (FSTL1 [7]): strong affinity | Treg induction (Foxp3+CTLA4+ fraction in CD4+ T cells) [8]: strong suppressive activity equal to or higher than that of #6-55 | Treg induction (Foxp3+CTLA4+ fraction in CD4+ T cells) (FSTL1 [9]): strong suppressive activity equal to or higher than that of #6-55 | MSC induction inhibitory effect [10]: strong inhibitory effect equivalent to or higher than that of #6-55 | Treg induction (Foxp3+CTLA4+ cell fraction in CD4+ T cells) [11]: strong suppressive activity equal to or higher than that of #6-55 | affinity in surface plasmon resonance assay (FSTL1 [12]): strong affinity
